The values below come from publication PMC10747188.

Data set [1] concerns the target T1, MFSD2a, endogenous on human cell lines (human (endogenous in HEK293T, Jurkat, HUVEC, U87-MG)) (UniProt Q8NA29).
T1 sequence: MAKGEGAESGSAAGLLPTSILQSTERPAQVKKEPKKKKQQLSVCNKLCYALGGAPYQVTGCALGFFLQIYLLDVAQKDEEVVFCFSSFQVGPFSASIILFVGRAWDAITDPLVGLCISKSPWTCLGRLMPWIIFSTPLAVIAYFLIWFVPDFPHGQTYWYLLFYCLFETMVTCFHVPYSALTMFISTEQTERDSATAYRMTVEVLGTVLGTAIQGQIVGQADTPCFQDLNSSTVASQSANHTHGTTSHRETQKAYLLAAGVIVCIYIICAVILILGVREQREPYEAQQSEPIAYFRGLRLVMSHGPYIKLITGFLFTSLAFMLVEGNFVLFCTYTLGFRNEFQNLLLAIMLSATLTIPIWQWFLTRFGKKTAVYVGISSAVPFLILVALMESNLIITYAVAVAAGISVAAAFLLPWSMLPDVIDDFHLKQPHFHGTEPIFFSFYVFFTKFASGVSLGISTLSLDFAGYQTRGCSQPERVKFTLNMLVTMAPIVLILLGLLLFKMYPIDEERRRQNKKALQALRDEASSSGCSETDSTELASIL

Data set [2] addresses T1, MFSD2a, endogenous on human cell lines (human (endogenous in HEK293T, Jurkat, HUVEC, U87-MG)). This is another data set of the same source.
Data set [3] has as its target simian MFSD2a, endogenous on Cos-7 cells (simian (endogenous in Cos-7)).
For data set [4], the target named is T2, MFSD2a N217Q-V5, expressed in HeLa cells (UniProt Q8NA29).
T2 sequence: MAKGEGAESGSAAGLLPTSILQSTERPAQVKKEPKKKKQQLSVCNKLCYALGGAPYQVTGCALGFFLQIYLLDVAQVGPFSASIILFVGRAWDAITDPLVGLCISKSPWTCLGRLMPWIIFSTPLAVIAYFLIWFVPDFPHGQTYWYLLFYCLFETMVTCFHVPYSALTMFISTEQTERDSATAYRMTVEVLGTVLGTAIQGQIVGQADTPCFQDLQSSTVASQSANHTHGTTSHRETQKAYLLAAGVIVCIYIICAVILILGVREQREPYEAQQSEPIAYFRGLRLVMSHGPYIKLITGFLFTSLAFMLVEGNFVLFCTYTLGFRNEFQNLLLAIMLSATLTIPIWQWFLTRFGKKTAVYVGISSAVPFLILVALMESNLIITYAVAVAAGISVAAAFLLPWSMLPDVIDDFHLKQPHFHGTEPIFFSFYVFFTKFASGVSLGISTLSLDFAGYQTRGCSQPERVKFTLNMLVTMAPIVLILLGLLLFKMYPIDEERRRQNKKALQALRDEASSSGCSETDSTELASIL

For data set [5], the target named is T3, MFSD2a N227Q-V5, expressed in HeLa cells (UniProt Q8NA29).
T3 sequence: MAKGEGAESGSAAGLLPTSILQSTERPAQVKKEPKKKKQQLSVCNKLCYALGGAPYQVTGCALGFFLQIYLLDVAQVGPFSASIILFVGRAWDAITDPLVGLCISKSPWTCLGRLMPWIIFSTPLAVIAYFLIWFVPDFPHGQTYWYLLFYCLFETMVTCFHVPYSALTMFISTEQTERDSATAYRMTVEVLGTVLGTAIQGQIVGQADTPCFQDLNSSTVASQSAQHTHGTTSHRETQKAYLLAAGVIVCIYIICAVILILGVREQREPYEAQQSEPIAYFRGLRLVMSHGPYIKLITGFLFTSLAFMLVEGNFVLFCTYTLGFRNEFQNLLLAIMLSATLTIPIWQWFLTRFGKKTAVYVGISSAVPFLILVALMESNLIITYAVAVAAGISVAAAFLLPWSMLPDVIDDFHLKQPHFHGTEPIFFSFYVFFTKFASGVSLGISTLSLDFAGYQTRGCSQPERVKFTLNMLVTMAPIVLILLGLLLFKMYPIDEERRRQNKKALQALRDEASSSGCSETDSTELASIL

Data set [6] has as its target T1, MFSD2a, endogenous on human cell lines (human (endogenous in HEK293T, Jurkat, HUVEC, U87-MG)). The source holds these as a separate data set.
Data set [7] is described as follows: anti-V5 Western blot of transfected cells. The following applies: glycan lost; control: wild-type MFSD2a.
Data set [8] in a line: anti-V5 immunofluorescence, confocal, Cos-7 cells. As to conditions: glycan lost; control: wild-type MFSD2a.
Data set [9] is described as follows: luciferase infection assay in transfected HeLa cells. As to conditions: glycan lost; control: wild-type MFSD2a.

B1: Syncytin-2, expressed in HEK293T cells (cell fusion assay) (natural protein)
chain: AYRHPDFPLLEKAQQLLQSTGSPYSTNCWLCTSSSTETPGTAYPASPREWTSIEAELHISYRWDPNLKGLMRPANSLLSTVKQDFPDIRQKPPIFGPIFTNINLMGIAPICVMAKRKNGTNVGTLPSTVCNVTFTVDSNQQTYQTYTHNQFRHQPRFPKPPNITFPQGTLLDKSSRFCQGRPSSCSTRNFWFRPADYNQCLQISNLSSTAEWVLLDQTRNSLFWENKTKGANQSQTPCVQVLAGMTIATSYLGISAVSEFFGTSLTPLFHFHISTCLKTQGAFYICGQSIHQCLPSNWTGTCTIGYVTPDIFIAPGNLSLPIPIYGNSPLPRVRRAIHFIPLLAGLGILAGTGTGIAGITKASLTYSQLSKEIANNIDTMAKALTTMQEQIDSLAAVVLQNRRGLDMLTAAQGGICLALDEKCCFWVNQSGKVQDNIRQLLNQASSLRERATQGWLNWEGTWKWFSWVLPLTGPLVSLLLLLLFGPCLLNLITQFVSSRLQAIKLQTNLSAGRHPRNIQESPF
Regarding B1, the cellular fusion index of Syn-2-transfected HEK293T cells with 4 µM recombinant Gal-1 for 24 h (8.56% +/− 0.6 with PBS; 5.76% +/− 0.22 with Gal-1 and 50 mM lactose) in [1] turned out to be 17.5%.

B2: Syncytin-2 (Flag-tagged), on pseudotyped NL4.3 virions (natural protein)
chain: AYRHPDFPLLEKAQQLLQSTGSPYSTNCWLCTSSSTETPGTAYPASPREWTSIEAELHISYRWDPNLKGLMRPANSLLSTVKQDFPDIRQKPPIFGPIFTNINLMGIAPICVMAKRKNGTNVGTLPSTVCNVTFTVDSNQQTYQTYTHNQFRHQPRFPKPPNITFPQGTLLDKSSRFCQGRPSSCSTRNFWFRPADYNQCLQISNLSSTAEWVLLDQTRNSLFWENKTKGANQSQTPCVQVLAGMTIATSYLGISAVSEFFGTSLTPLFHFHISTCLKTQGAFYICGQSIHQCLPSNWTGTCTIGYVTPDIFIAPGNLSLPIPIYGNSPLPRVRRAIHFIPLLAGLGILAGTGTGIAGITKASLTYSQLSKEIANNIDTMAKALTTMQEQIDSLAAVVLQNRRGLDMLTAAQGGICLALDEKCCFWVNQSGKVQDNIRQLLNQASSLRERATQGWLNWEGTWKWFSWVLPLTGPLVSLLLLLLFGPCLLNLITQFVSSRLQAIKLQTNLSAGRHPRNIQESPF
B2 had a fold-change in infectivity (luciferase) of Syn-2-pseudotyped viruses on HEK293T cells with 4 µM Gal-1 against virus only; abolished by 50 mM lactose in data set [2] of 5.51 fold. In [3], this molecule showed a fold-change in infectivity (luciferase) of Syn-2-pseudotyped viruses on Cos-7 cells with 4 µM Gal-1 against virus only; abolished by 50 mM lactose of 6.93 fold. In data set [4], this molecule yielded a fold-change in infectivity (luciferase) of Syn-2-pseudotyped viruses on N217Q-MFSD2a-transfected HeLa cells with Gal-1 against control; counteracted by lactose of 10.8 fold. Besides, the fold-change in infectivity (luciferase) of Syn-2-pseudotyped viruses on N227Q-MFSD2a-transfected HeLa cells with Gal-1 against control; counteracted by lactose in data set [5] worked out at 10.2 fold. In data set [6], this molecule came in with a fold-change in infectivity (luciferase) of Syn-2-pseudotyped viruses on HUVEC cells with 4 µM Gal-1 against virus only; inhibited by 50 mM lactose of 33.4 fold, a fold-change in infectivity (luciferase) of Syn-2-pseudotyped viruses on Jurkat cells with 4 µM Gal-1 against virus only; inhibited by 50 mM lactose of 14.1 fold and a fold-change in infectivity (luciferase) of Syn-2-pseudotyped viruses on U87-MG cells with 4 µM Gal-1 against virus only; inhibited by 50 mM lactose of 6.76 fold.

B3: MFSD2a: N217Q (protein)
parent chain: MAKGEGAESGSAAGLLPTSILQSTERPAQVKKEPKKKKQQLSVCNKLCYALGGAPYQVTGCALGFFLQIYLLDVAQVGPFSASIILFVGRAWDAITDPLVGLCISKSPWTCLGRLMPWIIFSTPLAVIAYFLIWFVPDFPHGQTYWYLLFYCLFETMVTCFHVPYSALTMFISTEQTERDSATAYRMTVEVLGTVLGTAIQGQIVGQADTPCFQDLNSSTVASQSANHTHGTTSHRETQKAYLLAAGVIVCIYIICAVILILGVREQREPYEAQQSEPIAYFRGLRLVMSHGPYIKLITGFLFTSLAFMLVEGNFVLFCTYTLGFRNEFQNLLLAIMLSATLTIPIWQWFLTRFGKKTAVYVGISSAVPFLILVALMESNLIITYAVAVAAGISVAAAFLLPWSMLPDVIDDFHLKQPHFHGTEPIFFSFYVFFTKFASGVSLGISTLSLDFAGYQTRGCSQPERVKFTLNMLVTMAPIVLILLGLLLFKMYPIDEERRRQNKKALQALRDEASSSGCSETDSTELASIL
Turning to B3, the expression_or_secretion entry in data set [7] was “no change”. For the same molecule, the localisation_or_trafficking result in data set [8] is recorded as “no change”. Moreover, the “other: galectin-1 enhancement of Syn-2 pseudovirus infectivity, fold_change” value in data set [9] is reported as “no change, 10.8-fold +/− 3.96 vs 9.3 +/− 1.52”.

B4: MFSD2a: double mutant (protein)
parent chain: MAKGEGAESGSAAGLLPTSILQSTERPAQVKKEPKKKKQQLSVCNKLCYALGGAPYQVTGCALGFFLQIYLLDVAQVGPFSASIILFVGRAWDAITDPLVGLCISKSPWTCLGRLMPWIIFSTPLAVIAYFLIWFVPDFPHGQTYWYLLFYCLFETMVTCFHVPYSALTMFISTEQTERDSATAYRMTVEVLGTVLGTAIQGQIVGQADTPCFQDLNSSTVASQSANHTHGTTSHRETQKAYLLAAGVIVCIYIICAVILILGVREQREPYEAQQSEPIAYFRGLRLVMSHGPYIKLITGFLFTSLAFMLVEGNFVLFCTYTLGFRNEFQNLLLAIMLSATLTIPIWQWFLTRFGKKTAVYVGISSAVPFLILVALMESNLIITYAVAVAAGISVAAAFLLPWSMLPDVIDDFHLKQPHFHGTEPIFFSFYVFFTKFASGVSLGISTLSLDFAGYQTRGCSQPERVKFTLNMLVTMAPIVLILLGLLLFKMYPIDEERRRQNKKALQALRDEASSSGCSETDSTELASIL
As for B4, the expression_or_secretion entry in data set [7] is “decreases”.

B5: MFSD2a: N227Q (protein)
parent chain: MAKGEGAESGSAAGLLPTSILQSTERPAQVKKEPKKKKQQLSVCNKLCYALGGAPYQVTGCALGFFLQIYLLDVAQVGPFSASIILFVGRAWDAITDPLVGLCISKSPWTCLGRLMPWIIFSTPLAVIAYFLIWFVPDFPHGQTYWYLLFYCLFETMVTCFHVPYSALTMFISTEQTERDSATAYRMTVEVLGTVLGTAIQGQIVGQADTPCFQDLNSSTVASQSANHTHGTTSHRETQKAYLLAAGVIVCIYIICAVILILGVREQREPYEAQQSEPIAYFRGLRLVMSHGPYIKLITGFLFTSLAFMLVEGNFVLFCTYTLGFRNEFQNLLLAIMLSATLTIPIWQWFLTRFGKKTAVYVGISSAVPFLILVALMESNLIITYAVAVAAGISVAAAFLLPWSMLPDVIDDFHLKQPHFHGTEPIFFSFYVFFTKFASGVSLGISTLSLDFAGYQTRGCSQPERVKFTLNMLVTMAPIVLILLGLLLFKMYPIDEERRRQNKKALQALRDEASSSGCSETDSTELASIL
For B5, the expression_or_secretion entry in [7] is listed as “no change”. For the same molecule, in data set [8], the localisation_or_trafficking result is on record as “no change”. Further, the “other: galectin-1 enhancement of Syn-2 pseudovirus infectivity, fold_change” value in data set [9] is recorded as “no change, 10.2-fold +/− 4.75 vs 9.3 +/− 1.52”.
